Measured values taken from article PMC6326742 (Cell, 2018).

Molecular target: the molecule itself
Assay: SEC-MALS

B1: Ptch1-B (stabilized mouse PTCH1 variant, SBP-tagged, purified) (receptor, UniProt Q61115 1-1291, looked up)
chain: MASAGNAAGALGRQAGGGRRRRTGGPHRAAPDRDYLHRPSYCDAAFALEQISKGKATGRKAPLWLRAKFQRLLFKLGCYIQKNCGKFLVVGLLIFGAFAVGLKAANLETNVEELWVEVGGRVSRELNYTRQKIGEEAMFNPQLMIQTPKEEGANVLTTEALLQHLDSALQASRVHVYMYNRQWKLEHLCYKSGELITETGYMDQIIEYLYPCLIITPLDCFWEGAKLQSGTAYLLGKPPLRWTNFDPLEFLEELKKINYQVDSWEEMLNKAEVGHGYMDRPCLNPADPDCPATAPNKNSTKPLDVALVLNGGCQGLSRKYMHWQEELIVGGTVKNATGKLVSAHALQTMFQLMTPKQMYEHFRGYDYVSHINWNEDRAAAILEAWQRTYVEVVHQSVAPNSTQKVLPFTTTTLDDILKSFSDVSVIRVASGYLLMLAYACLTMLRWDCSKSQGAVGLAGVLLVALSVAAGLGLCSLIGISFNAATTQVLPFLALGVGVDDVFLLAHAFSETGQNKRIPFEDRTGECLKRTGASVALTSISNVTAFFMAALIPIPALRAFSLQAAVVVVFNFAMVLLIFPAILSMDLYRREDRRLDIFCCFTSPCVSRVIQVEPQAYTEPMQSTVQLRTEYDPHTHVYYTTAEPRSEISVQPVTVTQDNLSCQSPESTSSTRDLLSQFSDSSLHCLEPPCTKWTLSSFAEKHYAPFLLKPKAKVVVILLFLGLLGVSLYGTTRVRDGLDLTDIVPRETREYDFIAAQFKYFSFYNMYIVTQKADYPNIQHLLYDLHKSFSNVKYVMLEENKQLPQMWLHYFRDWLQGLQDAFDSDWETGRIMPNNYKNGSDDGVLAYKLLVQTGSRDKPIDISQLTKQRLVDADGIINPSAFYIYLTAWVSNDPVAYAASQANIRPHRPEWVHDKADYMPETRLRIPAAEPIEYAQFPFYLNGLRDTSDFVEAIEKVRVICNNYTSLGLSSYPNGYPFLFWEQYISLRHWLLLSISVVLACTFLVCAVFLLNPWTAGIIVMVLALMTVELFGMMGLIGIKLSAVPVVILIASVGIGVEFTVHVALAFLTAIGDKNHRAMLALEHMFAPVLDGAVSTLLGVLMLAGSEFDFIVRYFFAVLAILTVLGVLNGLVLLPVLLSFFGPCPEVSPANGLNRLPTPSPEPPPSVVRFAVPPGHTNNGSDSSDSEYSSQTTVSGISEELRQYEAQQGAGGPAHQVIVEATENPVFARSTVVHPDSRHQPPLTPRQQPHLDSGSLSPGRQGQQPRRD
- stoichiometry N: 2
